Reference: patent US7029700B2, “Micronized freeze-dried particles” (Brown University Research Foundation, priority 2000, dated 2006)

What was measured:
[1] = hGH aggregation during FLM, SEC-HPLC; type: physicochemical
Description: This frozen emulsion was then lyophilized for 48 hrs to remove both the aqueous and organic solvent.

[2] = Oral GH delivery, serum hGH by ELISA; type: in vivo; settings: rats, single oral dose by gavage in corn oil
Procedure: CD male rats (250 to 300 g) were obtained from Charles River Laboratories. Group 1 was fed 1.24 mg of stock GH emulsified in 1 ml of USP corn oil; Group 2 was fed 50 mg of PIN microspheres (2B43099-2.47% Zn-GH in PLGA) in 1 ml of corn oil; Group 3 was fed 50 mg of PIN microspheres (2B51799 - 2.47% Stock GH, 16% FeO in PLGA) in 1 ml of corn oil. Microspheres were suspended in corn oil by vortexing followed by brief (5 s) probe sonication. Stock GH was similarly emulsified in corn oil by vortexing and probe sonication. Animals were fasted overnight, briefly anesthetized with methoxyfluorane, and formulations fed via gavage with an 18-G stainless steel feeding tube and serum from all animals obtained according to the following schedule: −1 hr (pre-feeding control), 0.5 hr, 1 hr, 2 hr, 3 hr, 4 hr, 6 hr, 24 hr, 48 hr, and 72 hr post-feeding. Serum samples obtained via tail bleeding were analyzed for hGH using the hGH specific ELISA (DSL Inc, Webster. Tex.) according to manufacturer's protocols.

hGH: Stock human growth hormone (20 mg/ml) incorporated into PLGA 50:50 by FLM under varied conditions
aggregation of best formulation combination ([1]; ethyl acetate, stock GH containing 0.2% F127, agitation time 15 s): 0.7% | Percent Aggregation (SEC-HPLC) ([1]; ethyl acetate, 15 s vortex, 0.05% F127 + T20, 24 hr): 1.9% | Percent Aggregation (SEC-HPLC) ([1]; ethyl acetate, 15 s vortex, 0.2% F127 + T20, 1 hr): 1.0/1.0% | Percent Aggregation (SEC-HPLC) ([1]; ethyl acetate, 15 s vortex, 0.2% F127 + T20, 24 hr): 1.0/1.0% | Percent Aggregation (SEC-HPLC) ([1]; ethyl acetate, 15 s vortex, 0.2% F127, 1 hr): 0.7/0.7% | Percent Aggregation (SEC-HPLC) ([1]; ethyl acetate, 15 s vortex, 0.2% F127, 24 hr): 0.7/0.7% | Percent Aggregation (SEC-HPLC) ([1]; ethyl acetate, 60 s vortex, 0.05% F127 + T20, 1 hr): 0.9% | Percent Aggregation (SEC-HPLC) ([1]; ethyl acetate, 60 s vortex, 0.05% F127 + T20, 24 hr): 1.0% | Percent Aggregation (SEC-HPLC) ([1]; ethyl acetate, 60 s vortex, 0.05% F127, 24 hr): 2.0% | Percent Aggregation (SEC-HPLC) ([1]; ethyl acetate, 60 s vortex, 0.2% F127 + T20, 1 hr): 1.1/1.1% | Percent Aggregation (SEC-HPLC) ([1]; ethyl acetate, 60 s vortex, 0.2% F127 + T20, 24 hr): 1.1/1.1% | Percent Aggregation (SEC-HPLC) ([1]; ethyl acetate, 60 s vortex, 0.2% F127, 1 hr): 1.5% | Percent Aggregation (SEC-HPLC) ([1]; ethyl acetate, 60 s vortex, 0.2% F127, 24 hr): 1.7% | Percent Aggregation (SEC-HPLC) ([1]; methylene chloride, 15 s vortex, 0.05% F127 + T20, 1 hr): 2.2% | Percent Aggregation (SEC-HPLC) ([1]; methylene chloride, 15 s vortex, 0.05% F127 + T20, 24 hr): 2.7% | Percent Aggregation (SEC-HPLC) ([1]; methylene chloride, 15 s vortex, 0.05% F127, 1 hr): 2.0% | Percent Aggregation (SEC-HPLC) ([1]; methylene chloride, 15 s vortex, 0.05% F127, 24 hr): 4.5% | Percent Aggregation (SEC-HPLC) ([1]; methylene chloride, 15 s vortex, 0.2% F127 + T20, 1 hr): 3.7% | Percent Aggregation (SEC-HPLC) ([1]; methylene chloride, 15 s vortex, 0.2% F127 + T20, 24 hr): 8.8% | Percent Aggregation (SEC-HPLC) ([1]; methylene chloride, 15 s vortex, 0.2% F127, 1 hr): 2.4% | Percent Aggregation (SEC-HPLC) ([1]; methylene chloride, 15 s vortex, 0.2% F127, 24 hr): 5.0% | Percent Aggregation (SEC-HPLC) ([1]; methylene chloride, 60 s vortex, 0.05% F127 + T20, 1 hr): 4.4% | Percent Aggregation (SEC-HPLC) ([1]; methylene chloride, 60 s vortex, 0.05% F127 + T20, 24 hr): 11.4% | Percent Aggregation (SEC-HPLC) ([1]; methylene chloride, 60 s vortex, 0.05% F127, 24 hr): 4.8% | Percent Aggregation (SEC-HPLC) ([1]; methylene chloride, 60 s vortex, 0.2% F127 + T20, 1 hr): 10.2% | Percent Aggregation (SEC-HPLC) ([1]; methylene chloride, 60 s vortex, 0.2% F127 + T20, 24 hr): 12.9% | Percent Aggregation (SEC-HPLC) ([1]; methylene chloride, 60 s vortex, 0.2% F127, 1 hr): 4.2% | Percent Aggregation (SEC-HPLC) ([1]; methylene chloride, 60 s vortex, 0.2% F127, 24 hr): 7.0%

stock GH: 1.24 mg of stock GH emulsified in 1 ml of USP corn oil
serum hGH Cmax [2]: 3.37 ± 2.14 ng/mL
